Experimental data published in the supplement of paper PMC7125110.
± gives the standard error. Fewer inactive variants are shown than the library holds.

B1: glmS ribozyme (parent)
chain: AUAAAAGCGCCAGAACUACAGAAAUGUAGUUGACGAGGAGGAGGUUUAUCGAAUUUUCGGCGGAUGCCUCCAAA

How the values were obtained:
Settings in all cases: with glucosamine-6-phosphate
[1] = variants of: B1; assay: self-cleavage kobs at 160 uM GlcN6P; higher = faster cleavage; RNA array
Summary of the method: (§1)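 Ribozyme variants carrying barcodes were transcribed in situ on sequenced MiSeq chips by E. coli RNA polymerase and tracked at 37 °C with a hybridised Cy3 probe. They were exposed to 40 μM to 10 mM glucosamine-6-phosphate in HEPES/KCl/Mg(OAc)2 buffer. kobs came from exponential decay fits of normalised per-tile medians, and kcat and KM from weighted Michaelis–Menten fits.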

[2] = variants of: B1; assay: self-cleavage kobs at 640 uM GlcN6P; higher = faster cleavage; RNA array
Summary of the method: as §1

[3] = variants of: B1; assay: self-cleavage kobs at 2500 uM GlcN6P; higher = faster cleavage; RNA array
Summary of the method: as §1

[4] = variants of: B1; assay: self-cleavage kobs at 10000 uM GlcN6P; higher = faster cleavage; RNA array
Summary of the method: as §1

Variant | self-cleavage kobs at 160 uM GlcN6P [1] | self-cleavage kobs at 640 uM GlcN6P [2] | self-cleavage kobs at 2500 uM GlcN6P [3] | self-cleavage kobs at 10000 uM GlcN6P [4]
AUAAAAGCGCCAGAACUACAGAAAUGUAGUUGACGAGGAAGCGGUUUGUCGAAUUUUCGGCGGAUGCCUCCAAA [G40A A42C A48G] | < 1e-05 s⁻¹ | < 1e-05 s⁻¹ | < 1e-05 s⁻¹ | < 1e-05 s⁻¹
AUAAAAGCGCCAGAACUACAGAAAUGUAGUUGACGAGAAGGAGGUUUAUCGAAUUUUCGUCGGAUGCCUCCAAA [G38A G60U] | < 1e-05 s⁻¹ | < 1e-05 s⁻¹ | < 1e-05 s⁻¹ | < 1e-05 s⁻¹
AUAAAAGCGGCAGAACUACAGAAAUGUAGUUGACGAGGAGGAGGUUUAUCGAAUUUUCGGCGGACGCCUCCAAA [C10G U65C] | < 1e-05 s⁻¹ | < 1e-05 s⁻¹ | < 1e-05 s⁻¹ | < 1e-05 s⁻¹
AUAAACGUGCCAGAACUACAGAAAUGUAGUUGACGAGGAGGAGGUUUAUCGAAUUUUCGGCGGAUGACUUCAAA [A6C C8U C67A C70U] | < 1e-05 s⁻¹ |  |  | 
AUAAAAGCGCCAGAGAUACAGAAAUGUAGUUGACGAGGAGGAGGUUUAUCGAAUUUUCGGCGGAUGCCUCCAAA [A15G C16A] | 0.000119 ± 4.3e-05 s⁻¹ | 0.000305 ± 7.7e-05 s⁻¹ | 0.000524 ± 0.00013 s⁻¹ | 
AUAAAAGCGCCAGAACUACAGAAAUGUAGUUGACGAGGAGGAAGUUUAUCGAAUUUUCGCCGGAUGCCUCCAAA [G43A G60C] | < 1e-05 s⁻¹ | < 1e-05 s⁻¹ | < 1e-05 s⁻¹ | < 1e-05 s⁻¹
AUAAAAGCGCCACAACUACAGAAAUGUAGUUGAUGAGGAGGAGGUUUAUCGAAUUUUCGGCGGAUGCCUCCAAA [G13C C34U] | < 1e-05 s⁻¹ | < 1e-05 s⁻¹ | < 1e-05 s⁻¹ | < 1e-05 s⁻¹
AUAAAAGCGCCAGAAAUACAGAAAUGUAGUUGACCAGGAGGAGGUUGAUCGAAUUUUCGGCGGAUGCCUCCAAA [C16A G35C U47G] | < 1e-05 s⁻¹ |  | < 1e-05 s⁻¹ | 
AUAAAAGGGCCAGAACUACAGAAAUGUAGUUGACGAGGAGGAGGUUUAUCGAAUUUUCAGCGGAUGCCUGCAAA [C8G G59A C70G] | < 1e-05 s⁻¹ |  |  | 
AUAAAAGCGCCAGAACUACAGAAAUGUAGUUGACGAGGAGGAGGUUUAUCGAAUUUUUGGCGGAUGCGUCCAAA [C58U C68G] | 4.79e-05 ± 1.6e-05 s⁻¹ | 0.000137 ± 2.7e-05 s⁻¹ | 8.11e-05 ± 2e-05 s⁻¹ | 
AUAAAAGCGCCAGAACUACAGAAAUGUAGUUGACGAGGAGGAGGUGUAUCGAAUGUUCGCCGGAUGCCUCCAAA [U46G U55G G60C] | < 1e-05 s⁻¹ |  | < 1e-05 s⁻¹ | 
AUAAAGGCUCCACAACUACAGAAAUGUAGUUGAAGAGGAGGAGGUUUAUCGAAUUUUCGGCGGAUGCCUCCAAA [A6G G9U G13C C34A] | < 1e-05 s⁻¹ | < 1e-05 s⁻¹ | < 1e-05 s⁻¹ | 
AUAAAAACGCAAGAACUACAGAAAUGUAGUUGACGAGGAGGAGGUUUAUCGUAUUUUCGGCGGAUGCCUACAAA [G7A C11A A52U C70A] | < 1e-05 s⁻¹ | < 1e-05 s⁻¹ | < 1e-05 s⁻¹ | 
AUAAAAGCGCCGGAACUACAGAAAUGUAGUUAACGAGGAGGAGGUUUAUCGAAUUUUCGGCGGAUGGUUCCAAA [A12G G32A C67G C68U] | 0.000534 ± 0.00025 s⁻¹ |  |  | 
AUAAAAGCGCCAGAACUACAGAAAUGUAGUUGACGAGGCGGAGGUUUAUCCAAUAUUCGGCGGAUGCCUCCAAA [A39C G51C U55A] | < 1e-05 s⁻¹ |  | < 1e-05 s⁻¹ | 
AUAAAACCGCCAUAACUACAGAAAUGUAGUUGACGCGGAGGAGGUUUAUCGAAUUUUCGGCGGAUGCAUCCAAA [G7C G13U A36C C68A] | < 1e-05 s⁻¹ |  | < 1e-05 s⁻¹ | 
AUAAAAGCGCCAGAACUACAGAAAUGUAGUUGCCGAGGAGGAGGUUUAUCUAAUUUUCGGCGGAUGCCUCCAAA [A33C G51U] | < 1e-05 s⁻¹ | < 1e-05 s⁻¹ |  | < 1e-05 s⁻¹
AUAAAAGCGCCAGAACUACAGAAAUGUAGUUGACAAGGAGUAGGUUUGUCGAAUUUUCGGCGGAUGCCUCCAAA [G35A G41U A48G] | < 1e-05 s⁻¹ |  | < 1e-05 s⁻¹ | 
AUAAAAGCCCCCGAACUACAGAAAUGUAGUCGACGAGGAGGAGGUUUAUCGAAUUUUCGGCGGAUGCCUCCAAA [G9C A12C U31C] | < 1e-05 s⁻¹ | < 1e-05 s⁻¹ | < 1e-05 s⁻¹ | 
AUAAAAGCGCCAGAACUACAGAAAUGUACUUGACGAGGAGGAGGUUUAUCGAAUUUUCGGUGGAUGCCUCUAAA [G29C C61U C71U] | < 1e-05 s⁻¹ |  |  | 
AUAAAAGCGCCAGAACUACAGAAAUGUAGUUGACGAGGAGGAAAUUUAUCGAAUUUUCGGCGGAUGCCUCCAAA [G43A G44A] | < 1e-05 s⁻¹ | < 1e-05 s⁻¹ | < 1e-05 s⁻¹ | < 1e-05 s⁻¹
AUAAAAGCGCCAGAACUACAGAAAUGUAGUUGACGAGGAGGAGGUUUAUCGAAUAUUCGGCGGGUGCCUCAAAA [U55A A64G C71A] | 0.000178 ± 4.2e-05 s⁻¹ | 0.000572 ± 0.00013 s⁻¹ |  | 
AUAAAGGCGCCAGAACUACAGAAAUGUAGUUGACGAGGAGGAGGUUUAUCGAAUUUUUGGCGGACGCCUCCAAA [A6G C58U U65C] | < 1e-05 s⁻¹ |  | < 1e-05 s⁻¹ | 
AUAAAAGCGCCAGAACUACAGAAAUGUAUUUGAGGAGUAGGAGUUUUAUCGAAUUUUCGGCGGAUGCCUCCAAA [G29U C34G G38U G44U] | < 1e-05 s⁻¹ | < 1e-05 s⁻¹ |  | 
AUAAAAGCGCCAGAACUACAGAAAUGUAUUUGACGAGGAGGAGGUUUCUCGAAUUUUCAGCGGAUGCCUCCAAA [G29U A48C G59A] | < 1e-05 s⁻¹ | < 1e-05 s⁻¹ | < 1e-05 s⁻¹ | < 1e-05 s⁻¹
AUAAAAGCGCCAGAGCUACAGAAAUGUAGUUGCCGAGGAGGAGGUUUAUCGAAUUUUCGGCGGUUGCCUCCAAA [A15G A33C A64U] | < 1e-05 s⁻¹ |  | < 1e-05 s⁻¹ | 
AUAAAAGUGCCAGAACUACAGAAAUGUAGUUGACGAGGAGGAGGUUUAUCGAAUUUUCGGGGGAUGCCUCCAAA [C8U C61G] | < 1e-05 s⁻¹ | < 1e-05 s⁻¹ | < 1e-05 s⁻¹ | < 1e-05 s⁻¹
AUAAAAGUGCCAGAACUACAGAAAUGUAGUUGACGAGGAGUAGGUUUAUCGAAUUUUUGGCGGAUGCAUGCAAA [C8U G41U C58U C68A C70G] | < 1e-05 s⁻¹ |  |  | 
AUAAAAGCGCCAGAACUACAGAAAUGUAGUUUACGAGGAGGAGGGUUAUCGAAUUUUCGGCGGAUGCCUACAAA [G32U U45G C70A] | < 1e-05 s⁻¹ | < 1e-05 s⁻¹ |  | 
AUAAAAGCGCCCGUACUACAGAAAUGUAGUUGACGAGGAGGAGUAUUAUCGAAUUUUCGGCGGAUGCCUCCAAA [A12C A14U G44U U45A] | < 1e-05 s⁻¹ |  |  | 
